Experiments:
c-Src SH2 = experiment: SH2 binding enrichment of the phosphorylated peptide, bacterial display (enrichment ratio); higher = better substrate or ligand; peptides without Tyr show the background
SHP2-C SH2 = experiment: as above
Grb2 SH2 = Grb2 SH2 (UniProt P62993); experiment: as above
Fyn = Fyn (UniProt P06241); experiment: phosphorylation enrichment, bacterial display (enrichment ratio); higher = better substrate or ligand; peptides without Tyr show the background
Fer (mouse) = experiment: as above
Fes = Fes (UniProt P07332); experiment: as above
c-Src = experiment: as above
c-Abl (mouse) = experiment: as above
MERTK = MERTK (UniProt Q12866); experiment: as above
FGFR3 = FGFR3 (UniProt P22607); experiment: as above
Hck = Hck (UniProt P08631); experiment: as above
Jak2 = Jak2 (UniProt O60674); experiment: as above
EPHB2 = EPHB2 (UniProt P29323); experiment: as above
EPHB1 = EPHB1 (UniProt P54762); experiment: as above
FGFR1 = FGFR1 (UniProt P11362); experiment: as above
AncSZ = experiment: as above
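Wherever SH2 binding enrichment of the phosphorylated peptide, bacterial display is given: peptide library displayed on the E. coli surface as eCPX fusions, selected cells deep-sequenced, score is each peptide's frequency after selection divided by its frequency in the input.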
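Wherever phosphorylation enrichment, bacterial display is given: 11-residue human phosphosite peptides and single-mutation variants displayed on the E. coli surface, counted by deep sequencing, each peptide's frequency after selection divided by its frequency in the unselected input library; frequency after pTyr selection over input frequency; kinase dosed for 20-30% of maximal phosphorylation in three min.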

FGFR1, sequence (P11362 whole entry, looked up): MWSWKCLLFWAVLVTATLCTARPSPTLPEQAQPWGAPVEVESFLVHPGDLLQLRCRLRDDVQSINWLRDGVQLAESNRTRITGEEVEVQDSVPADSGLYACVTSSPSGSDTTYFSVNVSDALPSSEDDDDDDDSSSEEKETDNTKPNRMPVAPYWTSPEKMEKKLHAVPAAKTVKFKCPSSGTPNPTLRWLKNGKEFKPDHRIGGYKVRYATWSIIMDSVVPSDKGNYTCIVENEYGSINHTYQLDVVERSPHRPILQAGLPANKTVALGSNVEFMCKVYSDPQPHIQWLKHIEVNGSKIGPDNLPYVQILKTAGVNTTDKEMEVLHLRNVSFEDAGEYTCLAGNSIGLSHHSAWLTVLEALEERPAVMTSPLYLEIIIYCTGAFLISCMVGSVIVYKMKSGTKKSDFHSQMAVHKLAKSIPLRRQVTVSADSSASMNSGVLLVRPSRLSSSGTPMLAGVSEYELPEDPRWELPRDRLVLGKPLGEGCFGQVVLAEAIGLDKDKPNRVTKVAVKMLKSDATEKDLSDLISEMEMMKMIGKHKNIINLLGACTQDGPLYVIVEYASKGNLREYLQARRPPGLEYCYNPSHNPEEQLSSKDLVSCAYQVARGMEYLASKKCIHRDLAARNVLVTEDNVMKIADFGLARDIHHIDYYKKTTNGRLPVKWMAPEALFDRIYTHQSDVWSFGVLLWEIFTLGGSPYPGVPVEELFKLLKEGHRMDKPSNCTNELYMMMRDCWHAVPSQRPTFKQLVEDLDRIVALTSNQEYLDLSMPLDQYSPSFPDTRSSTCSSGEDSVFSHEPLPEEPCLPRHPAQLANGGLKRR
Grb2 SH2, sequence (P62993 whole entry, looked up): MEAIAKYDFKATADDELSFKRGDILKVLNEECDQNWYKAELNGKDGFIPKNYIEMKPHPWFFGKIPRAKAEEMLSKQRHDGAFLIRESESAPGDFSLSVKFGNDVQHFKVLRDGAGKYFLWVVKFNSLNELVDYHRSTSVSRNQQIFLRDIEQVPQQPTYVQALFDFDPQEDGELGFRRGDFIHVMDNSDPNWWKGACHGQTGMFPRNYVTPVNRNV
Hck, sequence (P08631 whole entry, looked up): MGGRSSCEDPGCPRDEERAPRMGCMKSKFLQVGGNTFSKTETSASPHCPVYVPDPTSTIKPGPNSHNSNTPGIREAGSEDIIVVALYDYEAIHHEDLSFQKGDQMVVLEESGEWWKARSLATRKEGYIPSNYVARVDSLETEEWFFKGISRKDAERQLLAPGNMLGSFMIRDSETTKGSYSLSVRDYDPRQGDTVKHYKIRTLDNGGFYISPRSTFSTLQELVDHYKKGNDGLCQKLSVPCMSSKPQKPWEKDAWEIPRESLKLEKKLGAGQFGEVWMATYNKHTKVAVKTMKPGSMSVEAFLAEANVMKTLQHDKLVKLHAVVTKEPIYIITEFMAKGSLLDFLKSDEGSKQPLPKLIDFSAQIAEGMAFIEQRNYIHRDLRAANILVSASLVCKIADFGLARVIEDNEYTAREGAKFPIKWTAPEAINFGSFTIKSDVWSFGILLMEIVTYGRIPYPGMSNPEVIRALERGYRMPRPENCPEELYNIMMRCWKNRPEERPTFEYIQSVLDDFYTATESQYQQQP
Fyn, sequence (P06241 whole entry, looked up): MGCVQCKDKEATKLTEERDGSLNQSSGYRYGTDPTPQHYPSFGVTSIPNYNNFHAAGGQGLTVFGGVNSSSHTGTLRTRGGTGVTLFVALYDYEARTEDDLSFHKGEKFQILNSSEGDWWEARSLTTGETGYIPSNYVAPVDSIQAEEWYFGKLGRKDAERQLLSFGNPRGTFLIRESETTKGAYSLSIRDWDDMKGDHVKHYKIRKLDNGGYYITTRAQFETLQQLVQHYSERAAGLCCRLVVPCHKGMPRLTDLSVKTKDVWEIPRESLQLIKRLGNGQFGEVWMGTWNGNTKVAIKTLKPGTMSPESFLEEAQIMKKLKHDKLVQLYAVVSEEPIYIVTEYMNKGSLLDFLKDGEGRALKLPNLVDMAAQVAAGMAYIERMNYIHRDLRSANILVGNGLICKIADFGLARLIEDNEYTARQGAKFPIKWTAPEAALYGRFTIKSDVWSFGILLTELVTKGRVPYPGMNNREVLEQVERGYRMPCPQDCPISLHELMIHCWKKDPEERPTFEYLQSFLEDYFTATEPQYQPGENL
FGFR3, sequence (P22607 whole entry, looked up): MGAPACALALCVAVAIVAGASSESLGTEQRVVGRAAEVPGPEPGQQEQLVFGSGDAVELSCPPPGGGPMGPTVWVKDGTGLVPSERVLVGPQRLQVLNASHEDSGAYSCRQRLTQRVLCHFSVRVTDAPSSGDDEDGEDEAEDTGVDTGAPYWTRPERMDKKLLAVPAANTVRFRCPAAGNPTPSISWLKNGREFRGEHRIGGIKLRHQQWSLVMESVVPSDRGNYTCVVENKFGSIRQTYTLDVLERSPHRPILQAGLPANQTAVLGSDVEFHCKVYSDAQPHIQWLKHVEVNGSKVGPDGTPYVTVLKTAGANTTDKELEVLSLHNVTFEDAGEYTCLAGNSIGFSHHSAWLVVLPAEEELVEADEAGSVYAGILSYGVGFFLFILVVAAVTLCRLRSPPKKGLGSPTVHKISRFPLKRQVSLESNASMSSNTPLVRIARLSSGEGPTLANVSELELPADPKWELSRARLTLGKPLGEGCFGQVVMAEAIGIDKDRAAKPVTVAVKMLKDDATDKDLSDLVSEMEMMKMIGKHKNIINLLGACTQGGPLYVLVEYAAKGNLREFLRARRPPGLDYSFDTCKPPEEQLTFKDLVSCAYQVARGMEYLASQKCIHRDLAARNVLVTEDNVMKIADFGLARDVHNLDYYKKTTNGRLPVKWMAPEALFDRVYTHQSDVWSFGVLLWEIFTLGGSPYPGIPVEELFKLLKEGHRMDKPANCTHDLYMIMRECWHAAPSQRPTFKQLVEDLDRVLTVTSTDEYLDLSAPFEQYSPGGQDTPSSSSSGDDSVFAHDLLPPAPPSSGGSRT
Fes, sequence (P07332 whole entry, looked up): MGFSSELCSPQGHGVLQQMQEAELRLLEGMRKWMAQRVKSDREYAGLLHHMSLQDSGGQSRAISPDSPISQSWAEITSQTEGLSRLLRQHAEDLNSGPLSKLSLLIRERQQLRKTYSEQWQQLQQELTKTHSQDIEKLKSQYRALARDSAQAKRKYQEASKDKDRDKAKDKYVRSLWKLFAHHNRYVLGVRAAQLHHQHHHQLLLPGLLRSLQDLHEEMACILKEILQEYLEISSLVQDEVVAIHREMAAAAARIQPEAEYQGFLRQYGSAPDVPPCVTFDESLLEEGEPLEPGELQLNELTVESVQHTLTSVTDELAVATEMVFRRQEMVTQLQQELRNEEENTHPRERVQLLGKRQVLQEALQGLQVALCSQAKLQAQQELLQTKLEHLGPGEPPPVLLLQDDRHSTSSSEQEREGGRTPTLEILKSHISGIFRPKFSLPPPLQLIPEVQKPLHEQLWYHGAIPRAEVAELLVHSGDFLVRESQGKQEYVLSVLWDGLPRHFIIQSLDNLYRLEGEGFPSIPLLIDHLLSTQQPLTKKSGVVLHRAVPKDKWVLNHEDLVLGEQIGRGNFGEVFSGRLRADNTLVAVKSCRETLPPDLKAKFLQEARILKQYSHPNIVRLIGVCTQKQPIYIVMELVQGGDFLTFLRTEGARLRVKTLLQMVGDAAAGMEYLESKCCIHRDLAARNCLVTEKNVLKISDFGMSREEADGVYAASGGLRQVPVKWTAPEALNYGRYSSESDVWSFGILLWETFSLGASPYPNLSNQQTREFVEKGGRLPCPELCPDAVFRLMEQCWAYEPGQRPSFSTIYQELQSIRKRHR
MERTK, sequence (Q12866 whole entry, looked up): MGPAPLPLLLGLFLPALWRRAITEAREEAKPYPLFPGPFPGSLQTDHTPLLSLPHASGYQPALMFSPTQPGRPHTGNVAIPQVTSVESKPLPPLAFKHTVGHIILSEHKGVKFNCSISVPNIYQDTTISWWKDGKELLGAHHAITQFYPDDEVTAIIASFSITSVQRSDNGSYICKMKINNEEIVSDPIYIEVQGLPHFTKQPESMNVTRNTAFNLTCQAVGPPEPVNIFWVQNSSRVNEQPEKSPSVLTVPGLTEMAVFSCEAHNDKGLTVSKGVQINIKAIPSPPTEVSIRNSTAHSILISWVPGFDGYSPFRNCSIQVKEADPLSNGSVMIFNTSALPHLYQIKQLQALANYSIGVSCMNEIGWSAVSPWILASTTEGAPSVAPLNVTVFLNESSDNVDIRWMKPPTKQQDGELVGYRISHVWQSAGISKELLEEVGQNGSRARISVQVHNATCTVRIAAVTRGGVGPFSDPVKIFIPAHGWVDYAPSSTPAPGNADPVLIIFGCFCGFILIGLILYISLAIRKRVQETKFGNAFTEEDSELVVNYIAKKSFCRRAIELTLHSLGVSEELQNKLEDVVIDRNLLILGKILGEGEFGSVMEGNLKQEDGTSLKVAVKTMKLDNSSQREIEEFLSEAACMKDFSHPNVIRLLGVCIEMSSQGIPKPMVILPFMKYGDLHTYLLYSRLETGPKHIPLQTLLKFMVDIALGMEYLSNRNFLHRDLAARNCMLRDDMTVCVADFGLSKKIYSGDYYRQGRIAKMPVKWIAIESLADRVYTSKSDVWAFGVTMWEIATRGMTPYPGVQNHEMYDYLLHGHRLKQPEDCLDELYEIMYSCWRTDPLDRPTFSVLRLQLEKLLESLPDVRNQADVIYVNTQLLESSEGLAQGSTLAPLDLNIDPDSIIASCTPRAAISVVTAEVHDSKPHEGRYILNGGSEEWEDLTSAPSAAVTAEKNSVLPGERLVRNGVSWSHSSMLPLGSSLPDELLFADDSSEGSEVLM

With YRVAGYKTQGG [TIA1_Y383_E384K] as the sequence, how does the SH2 binding enrichment (c-Src SH2) read?
Its SH2 binding enrichment is 0.409.

What about the SH2 binding enrichment (SHP2-C SH2) of the same sequence?
Its SH2 binding enrichment is 0.553.

What about the SH2 binding enrichment (Grb2 SH2) of the same sequence?
The SH2 binding enrichment was 0.68.

What about the phosphorylation enrichment (Fyn) of the same sequence?
The phosphorylation enrichment was 0.494.

And the phosphorylation enrichment (Fer (mouse))?
The phosphorylation enrichment was 0.363.

And the phosphorylation enrichment (Fes)?
Its phosphorylation enrichment is 0.461.

And the phosphorylation enrichment (c-Src)?
The phosphorylation enrichment was 0.435.

What about the phosphorylation enrichment (c-Abl (mouse)) of the same sequence?
The phosphorylation enrichment was 1.98.

What about the phosphorylation enrichment (MERTK) of the same sequence?
Its phosphorylation enrichment is 0.312.

What about the phosphorylation enrichment (FGFR3) of the same sequence?
Its phosphorylation enrichment is 0.376.

And the phosphorylation enrichment (Hck)?
Its phosphorylation enrichment is 0.366.

What about the phosphorylation enrichment (Jak2) of the same sequence?
Its phosphorylation enrichment is 0.42.

What about the phosphorylation enrichment (EPHB2) of the same sequence?
Its phosphorylation enrichment is 0.309.

What about the phosphorylation enrichment (EPHB1) of the same sequence?
The phosphorylation enrichment was 0.368.

What about the phosphorylation enrichment (FGFR1) of the same sequence?
Its phosphorylation enrichment is 0.434.

What about the phosphorylation enrichment (AncSZ) of the same sequence?
The phosphorylation enrichment was 0.509.

How did the SH2 binding enrichment (c-Src SH2) turn out when YSNKLHYQLEQ [PDPR_Y109_Y109H] was run?
The SH2 binding enrichment was 0.606.

And the SH2 binding enrichment (SHP2-C SH2)?
Its SH2 binding enrichment is 0.54.

And the SH2 binding enrichment (Grb2 SH2)?
The SH2 binding enrichment was 0.98.

And the phosphorylation enrichment (Fyn)?
The phosphorylation enrichment was 0.568.

And the phosphorylation enrichment (Fer (mouse))?
Its phosphorylation enrichment is 0.461.

And the phosphorylation enrichment (Fes)?
Its phosphorylation enrichment is 0.782.

And the phosphorylation enrichment (c-Src)?
Its phosphorylation enrichment is 0.553.

What about the phosphorylation enrichment (c-Abl (mouse)) of the same sequence?
Its phosphorylation enrichment is 0.495.

And the phosphorylation enrichment (MERTK)?
The phosphorylation enrichment was 0.484.

And the phosphorylation enrichment (FGFR3)?
Its phosphorylation enrichment is 0.592.

And the phosphorylation enrichment (Hck)?
Its phosphorylation enrichment is 0.535.

What about the phosphorylation enrichment (Jak2) of the same sequence?
Its phosphorylation enrichment is 0.757.

What about the phosphorylation enrichment (EPHB2) of the same sequence?
Its phosphorylation enrichment is 0.439.

What about the phosphorylation enrichment (EPHB1) of the same sequence?
The phosphorylation enrichment was 0.498.

What about the phosphorylation enrichment (FGFR1) of the same sequence?
Its phosphorylation enrichment is 0.435.

And the phosphorylation enrichment (AncSZ)?
The phosphorylation enrichment was 1.12.

YSTPPYLLEAA [BRIP1_Y921_S919P] was tested. Which SH2 binding enrichment (c-Src SH2) did it give?
Its SH2 binding enrichment is 1.08.

And the SH2 binding enrichment (SHP2-C SH2)?
Its SH2 binding enrichment is 0.811.

What about the SH2 binding enrichment (Grb2 SH2) of the same sequence?
Its SH2 binding enrichment is 0.862.

And the phosphorylation enrichment (Fyn)?
Its phosphorylation enrichment is 1.56.

What about the phosphorylation enrichment (Fer (mouse)) of the same sequence?
The phosphorylation enrichment was 1.09.

What about the phosphorylation enrichment (Fes) of the same sequence?
The phosphorylation enrichment was 1.17.

What about the phosphorylation enrichment (c-Src) of the same sequence?
Its phosphorylation enrichment is 1.6.

What about the phosphorylation enrichment (c-Abl (mouse)) of the same sequence?
Its phosphorylation enrichment is 1.8.

And the phosphorylation enrichment (MERTK)?
The phosphorylation enrichment was 3.63.

What about the phosphorylation enrichment (FGFR3) of the same sequence?
Its phosphorylation enrichment is 0.935.

And the phosphorylation enrichment (Hck)?
The phosphorylation enrichment was 1.61.

And the phosphorylation enrichment (Jak2)?
Its phosphorylation enrichment is 1.04.

And the phosphorylation enrichment (EPHB2)?
The phosphorylation enrichment was 0.711.

And the phosphorylation enrichment (EPHB1)?
The phosphorylation enrichment was 0.664.

What about the phosphorylation enrichment (FGFR1) of the same sequence?
The phosphorylation enrichment was 1.16.

What about the phosphorylation enrichment (AncSZ) of the same sequence?
The phosphorylation enrichment was 1.77.

How did the SH2 binding enrichment (c-Src SH2) turn out when YVPSFYHAFSG [ACTN4_Y265_S262P] was run?
Its SH2 binding enrichment is 0.997.

And the SH2 binding enrichment (SHP2-C SH2)?
The SH2 binding enrichment was 0.673.

What about the SH2 binding enrichment (Grb2 SH2) of the same sequence?
Its SH2 binding enrichment is 1.2.

And the phosphorylation enrichment (Fyn)?
The phosphorylation enrichment was 1.82.

What about the phosphorylation enrichment (Fer (mouse)) of the same sequence?
Its phosphorylation enrichment is 0.407.

And the phosphorylation enrichment (Fes)?
The phosphorylation enrichment was 0.99.

And the phosphorylation enrichment (c-Src)?
Its phosphorylation enrichment is 2.17.

And the phosphorylation enrichment (c-Abl (mouse))?
The phosphorylation enrichment was 1.06.

And the phosphorylation enrichment (MERTK)?
Its phosphorylation enrichment is 7.65.

And the phosphorylation enrichment (FGFR3)?
The phosphorylation enrichment was 1.17.

What about the phosphorylation enrichment (Hck) of the same sequence?
Its phosphorylation enrichment is 1.94.

What about the phosphorylation enrichment (Jak2) of the same sequence?
Its phosphorylation enrichment is 0.794.

What about the phosphorylation enrichment (EPHB2) of the same sequence?
The phosphorylation enrichment was 1.03.

What about the phosphorylation enrichment (EPHB1) of the same sequence?
The phosphorylation enrichment was 2.09.

What about the phosphorylation enrichment (FGFR1) of the same sequence?
Its phosphorylation enrichment is 1.32.

What about the phosphorylation enrichment (AncSZ) of the same sequence?
The phosphorylation enrichment was 0.81.

Reference: the supplement of paper PMC10065799, “High-throughput profiling of sequence recognition by tyrosine kinases and SH2 domains using bacterial peptide display” (eLife, 2023)
